Test results published in article PMC2940250.

Assays:
Assay in all cases: other fluorescence titration
[1] = target: 14-C40-1 chimeric virus (HRV14:HIV-1 gp41 ALDKWAS chimera from a previous library) (human rhinovirus 14 | HIV-1 HxB2)
[2] = target: C1 chimeric virus (HRV14:HIV-1 gp41 ELDKWAS chimera) (human rhinovirus 14 | HIV-1 HxB2)
[3] = target: B1 chimeric virus (HRV14:HIV-1 gp41 ELDKWAS chimera) (human rhinovirus 14 | HIV-1 HxB2)

**Q.** How did the Kd [1] turn out when “broadly neutralizing human mAb 2F5 (antibody)” was run?
**A.** The Kd was 0.769 µM.

**Q.** What about the Kd [2] of the same substance?
**A.** Its Kd is 0.0238 µM.

**Q.** And the Kd [3]?
**A.** The Kd was 0.002 µM.
